Target: the molecule itself
Assay: migration on a gel, blot (Supplementary Fig. 8c); without reducing agent; sample and gel conditions not shown

B1: CLCC1 (natural protein, human, UniProt Q96S66 19-551, looked up)
chain: HDDDWIDPTDMLNYDAASGTMRKSQAKYGISGEKDVSPDLSCADEISECYHKLDSLTYKIDECEKKKREDYESQSNPVFRRYLNKILIEAGKLGLPDENKGDMHYDAEIILKRETLLEIQKFLNGEDWKPGALDDALSDILINFKFHDFETWKWRFEDSFGVDPYNVLMVLLCLLCIVVLVATELWTYVRWYTQLRRVLIISFLFSLGWNWMYLYKLAFAQHQAEVAKMEPLNNVCAKKMDWTGSIWEWFRSSWTYKDDPCQKYYELLLVNPIWLVPPTKALAVTFTTFVTEPLKHIGKGTGEFIKALMKEIPALLHLPVLIIMALAILSFCYGAGKSVHVLRHIGGPESEPPQALRPRDRRRQEEIDYRPDGGAGDADFHYRGQMGPTEQGPYAKTYEGRREILRERDVDLRFQTGNKSPEVLRAFDVPDAEAREHPTVVPSHKSPVLDTKPKETGGILGEGTPKESSTESSQSAKPVSGQDTSGNTEGSPAAEKAQLKSEAAGSPDQGSTYSPARGVAGPRGQDPVSSPCG
notes: CLCC1, human
For B1, the “stoichiometry N” value was 2.

From publication PMC13061601, “CLCC1 promotes hepatic neutral lipid flux and nuclear pore complex assembly” (Nature, 2026)
